One block for each binder: values may come before it.
Tests used:
[1] = target: T1, Recombinant IL-17A/F heterodimer (IL-17A and IL-17F linked by a GS linker) (human); experiment: Biacore 3000 SPR, 25 C, antibody captured by anti-mouse IgG Fc, cytokine titrated from 25 nM
T1 construct: also called heterodimer A/F; human recombinant IL-17A/F heterodimer
Description: All experiments were performed at 25° C. Affinipure F(ab′)₂ fragment goat anti-mouse IgG, Fc fragment specific (Jackson ImmunoResearch) was immobilised on a CMS Sensor Chip (Biacore AB) via amine coupling chemistry to a capture level of ≈6000 response units (RUs). HBS-EP buffer (10 mM HEPES pH 7.4, 0.15 M NaCl, 3 mM EDTA, 0.005% Surfactant P20, Biacore AB) was used as the running buffer with a flow rate of 10 μL/min. […] The surface was regenerated at a flowrate of 10 uL/min by a 10 μL injection of 40 mM HCl, followed by a 5 μL injection of 5 mM NaOH.
Double referenced background subtracted binding curves were analysed using the BIAevaluation software (version 3.2) following standard procedures. Kinetic parameters were determined from the fitting algorithm.

IL-17C = target: T2, IL-17C (UniProt Q9P0M4 19-197); experiment: Biacore 3000 SPR, antibody captured by anti-human IgG Fc
T2 sequence (looked up): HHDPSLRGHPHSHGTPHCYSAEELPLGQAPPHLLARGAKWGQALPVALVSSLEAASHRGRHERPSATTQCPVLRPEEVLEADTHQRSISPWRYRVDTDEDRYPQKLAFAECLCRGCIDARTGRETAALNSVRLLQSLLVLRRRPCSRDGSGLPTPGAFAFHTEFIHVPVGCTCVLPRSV
Description: (§1) All experiments were performed at 25° C. Affinipure Fc Fragment goat anti-human IgG, Fc fragment specific (Jackson ImmunoResearch) was immobilised on a CMS Sensor Chip via amine coupling chemistry to a capture level of ≈6000 response units (RUs). HBS-EP buffer (10 mM HEPES pH 7.4, 0.15 M NaCl, 3 mM EDTA, 0.005% Surfactant P20, Biacore AB) was used as the running buffer with a flow rate of 10 μl/min. […] The surface was regenerated by a 30 μL injections of 40 mM HCl, followed by one 5 μL injection of 5 mM NaOH.
(§2) Background subtraction binding curves were double referenced and analysed using the BIAevaluation software (version 3.2) following standard procedures. Kinetic parameters were determined from the fitting algorithm.

IL-17D = target: T3, IL-17D (UniProt Q8TAD2 18-202, limits assumed); experiment: as above
T3 sequence (looked up): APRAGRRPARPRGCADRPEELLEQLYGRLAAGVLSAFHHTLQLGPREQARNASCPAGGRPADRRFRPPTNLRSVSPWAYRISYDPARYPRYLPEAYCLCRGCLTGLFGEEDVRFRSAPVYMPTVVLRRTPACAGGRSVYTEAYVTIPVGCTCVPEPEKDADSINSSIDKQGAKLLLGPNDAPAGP
Description: as §1, §2

IL-17E = target: T4, IL-17E (UniProt Q9H293 33-177); experiment: as above
T4 sequence (looked up): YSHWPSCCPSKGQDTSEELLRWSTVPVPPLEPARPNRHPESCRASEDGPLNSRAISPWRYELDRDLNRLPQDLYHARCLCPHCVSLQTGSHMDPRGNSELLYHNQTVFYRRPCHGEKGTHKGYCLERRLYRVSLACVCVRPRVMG
Description: as §1, §2

IL-17B = target: T5, IL-17B (UniProt Q9UHF5 21-180); experiment: as above
T5 sequence (looked up): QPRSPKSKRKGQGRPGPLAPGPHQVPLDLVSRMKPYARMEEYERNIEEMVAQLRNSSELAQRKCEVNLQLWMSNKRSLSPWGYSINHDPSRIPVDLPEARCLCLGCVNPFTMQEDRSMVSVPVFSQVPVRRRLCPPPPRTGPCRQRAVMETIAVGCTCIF
Description: as §1, §2

T1 sequence (chain, as listed by the source limits assumed): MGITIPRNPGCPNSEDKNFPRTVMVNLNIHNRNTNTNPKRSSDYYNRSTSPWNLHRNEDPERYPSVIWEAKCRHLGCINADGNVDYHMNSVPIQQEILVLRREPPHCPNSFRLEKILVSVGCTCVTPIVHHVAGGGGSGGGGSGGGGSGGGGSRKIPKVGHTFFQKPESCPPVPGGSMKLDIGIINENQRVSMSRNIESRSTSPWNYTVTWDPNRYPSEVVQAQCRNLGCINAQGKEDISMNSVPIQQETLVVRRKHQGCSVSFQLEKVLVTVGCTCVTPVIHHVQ

- Kd [1]: 0.116 nM
B1: Antibody CA028-0496 (murine IgG1 constant regions) (antibody, V domains shown)
VH: EVQLVESGGGLVQPGGSLRLSCAASGFTFSDYNMAWVRQAPGKGLEWVATITYEGRNTYYRDSVKGRFTISRDNAKNSLYLQMNSLRAEDTAVYYCASPPQYYEGSIYRLWFAHWGQGTLVTVSS
VL: AIQLTQSPSSLSASVGDRVTITCRADESVTTLMHWYQQKPGKAPKLLIYLVSNRESGVPSRFSGSGSGTDFTLTISSLQPEDFATYYCQQTWSDPWTFGQGTKVEIKR
notes: captured by anti-mouse IgG Fc

- binding result (IL-17C): no binding
- binding result (IL-17D): no binding
- binding result (IL-17E): no binding
- binding result (IL-17B): no binding
B2: Antibody CA028-0496 (human IgG4 constant regions) (antibody, V domains shown)
VH: B1 VH
VL: B1 VL
notes: human gamma-4 constant region with hinge mutation S241P and human C-kappa (Km3), made in CHO cells; also called CA028496
